Results from paper PMC11787515, “Resilience and charge-dependent fibrillation of functional amyloid: Interactions of Pseudomonas biofilm-associated FapB and FapC amyloids” (The Journal of Biological Chemistry, 2024).

B1: FapC (C-terminal histidine tag) labeled with Cyanine5 (natural protein)
chain: MGNEGGWHPPKPNPQSNNKGGATALVVDTQQNYNNKVSNFGTLNNASVSGSIKDASGNVGVNVAAGDNNQQANAAALASADASFVFGTATASTSVLQSGYGNTLNNYSNPNTASLSNSANNVSGNLGVNVAAGNFNQQKNDLAAAVSNGQYSTAGSAASQTSTGNTTVNSANYAYGGTYVSLKLNADGSYKGTSDQIGDVYLDTWEGQTHPGGSNTGHIDVDSQAQGAKDLNHDGGAFAFKEKGDVDLKGTVSGFIPAIVGFKTPVTNNASLSNSLQNVSGNVGVNIAAGGGNQQSNSLSIAAGCSSCPAGGESLGF
modifications: Cyanine5 attached by NHS ester to lysine residues (primary amines)
notes: FapC, Pseudomonas aeruginosa PAO1, UniProt Q9I2F0, without its signal peptide; same chain as m2; also called FapC labeled with Cyanine5; labeled FapC; source: E. coli BL-21, labeled on HisPur cobalt resin with Cyanine5 NHS ester, eluted and desalted
B2: FapB from the P. aeruginosa PAO1 strain with an N-terminal histidine tag (natural protein)
chain: DPLASRNRASIDDSGTYRGNFALNQAAGDAQQQSNVRVVAVGSAALVGSDQRQHLQLDASQPIAASASISGAALRGSGILGVNQGAGLGNQQINAFRLSLSNGPESLDDSVLAQSVALTKVSGSATPVPGGRSVSTDDRAFAGSSGVVQVNQSAGVGNQSMNTLSVRVME
notes: FapB, Pseudomonas aeruginosa PAO1, UniProt Q9I2E9; Used as fresh monomers, as fibrils and as sonicated fibril seeds; also called FapB-NterHis; histidine-tagged FapB; source: E. coli BL-21, purified (HisPur cobalt resin, lysis in 6 M guanidinium HCl)

Experiments:
[1] = target: the molecule itself; assay: thioflavin T fibrillation kinetics + transmission electron microscopy; each protein alone, 25, 50 or 100 uM, universal buffer (Tris, Bis-Tris, sodium acetate) pH 4-9, 20 uM ThT, 37 °C, orbital shaking 300 rpm; fibrils seen by TEM after 80 h; self-assembly into amyloid fibrils
[2] = target: B2; assay: cell-based or functional assay
[3] = target: the molecule itself; assay: transmission electron microscopy of fibrils; fluorophore-labeled FapB and FapC, negative staining with 1% uranyl acetate
[4] = target: the molecule itself; assay: fibril formation, pelleting and formic acid dissolution with SDS-PAGE; 30 uM protein, 37 °C, 48 h, incubated individually; fibrils washed by centrifugation at 13,000g, sonicated and treated with formic acid
[5] = target: B1; assay: fluorescence microscopy of labeled purified proteins (colocalisation of monomers with preformed fibrils); Cyanine3-FapB and Cyanine5-FapC; monomers (0 h incubation) mixed with preformed fibrils (72 h incubation) of the other protein; imaged immediately after mixing and after 24 h; Leica DMI8, 20x; details: both partners purified

| Binder | binding result [1] | binding result [3] | further results |
| --- | --- | --- | --- |
| FapC from the P. aeruginosa PAO1 strain with a C-terminal histidine tag (natural protein, Used as fresh monomers, as fibrils and as sonicated fibril seeds; also called FapC-CterHis; histidine-tagged FapC; source: E. coli BL-21, purified (HisPur cobalt resin, lysis in 6 M guanidinium HCl)) MGNEGGWHPPKPNPQSNNKGGATALVVDTQQNYNNKVSNFGTLNNASVSGSIKDASGNVGVNVAAGDNNQQANAAALASADASFVFGTATASTSVLQSGYGNTLNNYSNPNTASLSNSANNVSGNLGVNVAAGNFNQQKNDLAAAVSNGQYSTAGSAASQTSTGNTTVNSANYAYGGTYVSLKLNADGSYKGTSDQIGDVYLDTWEGQTHPGGSNTGHIDVDSQAQGAKDLNHDGGAFAFKEKGDVDLKGTVSGFIPAIVGFKTPVTNNASLSNSLQNVSGNVGVNIAAGGGNQQSNSLSIAAGCSSCPAGGESLGF | binds | – | residual FapB monomer on SDS-PAGE after 9 days of coincubation 1:1 with FapC at pH 5, without formic acid, relative to untreated monomers (9% for FapB alone) [2]: 52% |
| B1 | – | binds | – |
| histidine-tagged CsgB of E. coli (natural protein, E. coli K12, UniProt P0ABK7 22-151, looked up, CsgB (curli minor subunit), E. coli K12, UniProt P0ABK7; Expressed from a pET11a plasmid; the construct is not described further; source: E. coli BL21-DE3 slyD KO, purified (nickel-nitrilotriacetic acid beads, from 7.5 M guanidine hydrochloride)) AGYDLANSEYNFAVNELSKSSFNQAAIIGQAGTNNSAQLRQGGSKLLAVVAQEGSSNRAKIDQTGDYNLAYIDQAGSANDASISQGAYGNTAMIIQKGSGNKANITQYGTQKTAIVVQRQSQMAIRVTQR | – | – | binding result [4]: binds |
| B2 | binds | – | – |
| FapB (N-terminal histidine tag) labeled with Cyanine3 (natural protein, Cyanine3 attached by NHS ester to lysine residues (primary amines), FapB, Pseudomonas aeruginosa PAO1, UniProt Q9I2E9, 170 residues without the signal peptide; same chain as m1; also called FapB labeled with Cyanine3; labeled FapB; source: E. coli BL-21, labeled on HisPur cobalt resin with Cyanine3 NHS ester, eluted and desalted) DPLASRNRASIDDSGTYRGNFALNQAAGDAQQQSNVRVVAVGSAALVGSDQRQHLQLDASQPIAASASISGAALRGSGILGVNQGAGLGNQQINAFRLSLSNGPESLDDSVLAQSVALTKVSGSATPVPGGRSVSTDDRAFAGSSGVVQVNQSAGVGNQSMNTLSVRVME | – | binds | binding result [5]: binds |
| FapC from the P. aeruginosa PAO1 strain with an N-terminal histidine tag (natural protein, FapC, Pseudomonas aeruginosa PAO1, UniProt Q9I2F0; cloned into pET28b with the histidine tag at the N-terminal site; This construct probably holds the same stretch without the signal peptide; also called FapC with histidine tag at the N-terminus; source: E. coli BL-21, purified (HisPur cobalt resin, lysis in 6 M guanidinium HCl); not shown: His tag, N-terminal, kept) GNEGGWHPPKPNPQSNNKGGATALVVDTQQNYNNKVSNFGTLNNASVSGSIKDASGNVGVNVAAGDNNQQANAAALASADASFVFGTATASTSVLQSGYGNTLNNYSNPNTASLSNSANNVSGNLGVNVAAGNFNQQKNDLAAAVSNGQYSTAGSAASQTSTGNTTVNSANYAYGGTYVSLKLNADGSYKGTSDQIGDVYLDTWEGQTHPGGSNTGHIDVDSQAQGAKDLNHDGGAFAFKEKGDVDLKGTVSGFIPAIVGFKTPVTNNASLSNSLQNVSGNVGVNIAAGGGNQQSNSLSIAAGCSSCPAGGESLGF | binds | – | – |
